Data: US20220213221 (published 2022)
Read-outs that look alike come from different tables or passages of the source.

T1: RhoC Q63L (human, UniProt P08134)
T1 chain: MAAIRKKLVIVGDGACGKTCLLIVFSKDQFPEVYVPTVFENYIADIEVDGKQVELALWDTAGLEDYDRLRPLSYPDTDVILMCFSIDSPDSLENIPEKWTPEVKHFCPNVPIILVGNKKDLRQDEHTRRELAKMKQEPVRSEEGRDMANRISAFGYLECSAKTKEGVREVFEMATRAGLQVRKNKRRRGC

T2: RhoB Q63L (human, UniProt P62745)
T2 chain: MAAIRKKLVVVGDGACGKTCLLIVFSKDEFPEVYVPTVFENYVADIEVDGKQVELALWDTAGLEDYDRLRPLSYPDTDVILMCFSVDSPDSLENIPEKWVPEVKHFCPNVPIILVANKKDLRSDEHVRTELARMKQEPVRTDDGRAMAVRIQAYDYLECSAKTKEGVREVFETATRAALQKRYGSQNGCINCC


Tests used:
RhoA Q63L = RhoA Q63L (human, UniProt P61586)
RhoC Q63L = biological target: T1, RhoC Q63L
RhoB Q63L = biological target: T2, RhoB Q63L
[1] = biological target: RhoA wild type GDP-loaded (human, UniProt P61586); assay: ELISA
RhoA T19N [2] = biological target: T3, RhoA T19N (human, UniProt P61586); assay: ELISA
RhoA T19N [3] = biological target: T3, RhoA T19N

T3 sequence (P61586 1-190 T19N): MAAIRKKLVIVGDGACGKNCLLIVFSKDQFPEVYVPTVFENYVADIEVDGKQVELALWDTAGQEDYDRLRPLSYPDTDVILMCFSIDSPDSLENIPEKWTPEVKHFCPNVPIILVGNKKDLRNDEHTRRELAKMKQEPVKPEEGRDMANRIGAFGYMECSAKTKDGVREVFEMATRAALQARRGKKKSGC

Row | Binder | Kd (RhoA Q63L) [nM] | Kd (RhoC Q63L) [nM] | Kd (RhoB Q63L) [nM] | binding result (RhoA T19N [3]) | further results
1 | 4SNP36 (antibody, V domains shown) VH: VQLQASGGGFVQPGGSLRLSCAASGTSWKDYTMGWFRQAPGKEREFVSAISEGPGAQYYYADSVKGRFTISRDNSKNVYLQMNSLRAEDTATYYCAYSSWQPYVSYWGQGTQVTVSS | 0.296 | 0.0831 | 0.278 | – | –
2 | H12 (antibody, V domains shown) VH: VQLQASGGGFVQPGGSLRLSCAASGDGSRIYAMGWFRQAPGKEREFVSAISWEQDWEHYYADSVKGRFTISRDNSKNTVYLQMNSLRAEDTATYYCAAFMTPHRNLTSMYWGQGTQVTVSS | 0.265 | 0.0479 | – | – | binding result [1]: no binding; binding result (RhoA T19N [2]): no binding
3 | 5SNP65 (antibody, V domains shown) VH: VQLQASGGGFVQPGGSLRLSCAASGATYEGEAMGWFRQAPGKEREFVSAISSYPSVISYYADSVKGRFTISRDNSKNTVYLQMNSLRAEDTATYYCAYWVNHEGTIREIYWGQGTQVTVSS | – | – | – | no binding | –
4 | 5SNP48 (antibody, V domains shown) VH: VQLQASGGGFVQPGGSLRLSCAASGTSWFTEVMGWFRQAPGKEREFVSAISGLHDVGTYYADSVKGRFTISRDNSKNTVYLQMNSLRAEDTATYYCAALDKWYTKAMDARKDYWGQGTQVTVSS | – | – | – | no binding | –
5 | B6 (antibody, V domains shown) VH: VQLQASGGGFVQPGGSLRLSCAASGYGSTIETMGWFRQAPGKEREFVSAISRAPGPSQYYADSVKGRFTISRDNSKNTVYLQMNSLRAEDTATYYCAPINNRTMQDSMFLWNYWGQGTQVTVSS | – | – | 0.71 | – | –
